Measurements taken from the nanobody polyreactivity screen of Harvey et al. (2022).

Experiment: yeast display, Sf9 membrane polyspecificity reagent, FACS + sequencing; frameworks hold sequencing errors
In short: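 Synthetic nanobody libraries on Saccharomyces cerevisiae BJ5465 were galactose-induced for 36–48 hours, stained 1 hour at 4 °C with 10% biotinylated, detergent-solubilized Sf9 membrane reagent and enriched on streptavidin microbeads. FACS then separated cells into low and high (top ~1%) gates by anti-HA (expression) and streptavidin (reagent binding) fluorescence. Genes were colony-PCR amplified, MiSeq 2 × 250 sequenced and CDR-length filtered. A clone's polyreactivity label is that of its gate of origin.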

For “QVQLVESGVGLVQGGGSLRLTCPASGFTFDWYAMGWYRPAPGKERELVAAISSSGTSTYYADSVKGRFTISRDTAKNTVYLQMNSLKPEDTAVYYCAARWYYVTPLRRYCYWGQGTQVTVSS”, which “polyreactivity (PSR sort gate)” value is on record?
Its value is “high polyreactivity”.

For “QVQLVESGVGLVQSGGSLRLSCAASGRISAQYTMGWYRQAPGIERELFAAITWSGTNTYYADSVKGRFTISRDNAKNTVYLQFNSLKPEDTAVYYCATAVYLVIFEYDYWGQGTHVTVSS”, which “polyreactivity (PSR sort gate)” value is on record?
The value was “low polyreactivity”.

With “QVQLVESGVGVVQAGGSLRLSCAASGRTFLRYTMGGYRQAPGKEREFVAAISYDTSSTYYADSVKGRFTISRDNAKNTVYLQMNSLKPEDTAVYYCAATLSRVSLSYGYWGLGTQVTVSS” as the sequence, how does the “polyreactivity (PSR sort gate)” value read?
Its value is “low polyreactivity”.

For “QVQLVESGVRLVQAGGSHRLSCAANGFIFRRYAMGWYIQAPGKERELVAAITRSGGTTYYADSVKGRFTISRDNAKNTVYFQLNSLKPEDTAVYYCDARRPYTYDSGDILEMDHWGQGTQVTVSS”, which “polyreactivity (PSR sort gate)” value is on record?
The value was “high polyreactivity”.

Which “polyreactivity (PSR sort gate)” value does the source give for “QVQLVESGVVLDQAGGILRLSCAASGFIFARYDMGWYRQAPGKERELVATISYTGGRTYYADSVKGRFTISRDNAKNTVYLQMNSLKPEDTAVYYCAAVVQSSEPVEYDYWGQGTQVTVSS” here?
The value was “high polyreactivity”.

For “QVQLVESRGGIVQAGGSLRLSCAASGSIFEQYAMGLYRQAPGKERELVAAISKRGTSTNYADSVKGRVTISRDNAKNTVYLQMNSLKPEDTAVYYCNADSRHRRNYDYWGQGTHVTVSS”, which “polyreactivity (PSR sort gate)” value is on record?
The value was “high polyreactivity”.

With “QVQLVESRGGIVQAGGSLRLTCAASGRTFRSKVMGWYRQAQGKERELVADITYSGGNTYYADSVKGRFTISRDNAKNTDYLQMNSLKPEDNAVYYCATGWSWWTFDYWGQGTQVTVSS” as the sequence, how does the “polyreactivity (PSR sort gate)” value read?
The value was “high polyreactivity”.

With “QVQLVESRGGLDQAGGSLRLSCAASGSIFGFYAMGWYRQAPGKERELVAAISSDGGSTYYADSVKGRFTISRDNAKNTVYLQMNSLKPEDTAVYYCAAAHGSIFDSTYYEYYYWGQGTQVTVSS” as the sequence, how does the “polyreactivity (PSR sort gate)” value read?
The value was “low polyreactivity”.

Which “polyreactivity (PSR sort gate)” value does the source give for “QVQLVESRGGLVHAGGSLGLSCAASGSTFGVNAMGWYRQAPGKERELVASISSGGGTYYADSVKGRFTISRDNSKNTVYLQMNSLKPEDTAVYYCAAVYYWYDSYAGYDYWGQGTQVTVSS” here?
Its value is “low polyreactivity”.

Which “polyreactivity (PSR sort gate)” value does the source give for “QVQLVESRGGLVQAGCSLRLSSAASGLIFYFYTMGWYRQAPGKERELVDSIRSGDSTNYADSVKGRFTISRDNAKNTVYLQMNSLKPEDTAVYYCNARYRYPYYLSVAEKYDYWGQGTQVTVSS” here?
The value was “high polyreactivity”.

Which “polyreactivity (PSR sort gate)” value does the source give for “QVQLVESRGGLVQAGGRLRLSCAASGLIFYKYAMGWYRPAHGKERQLVAAITSGGGSTYYADSVKGRFTISRDNAKNTVYLQKNSLKPEDSAVYYCAATRPATYAAYDYWGHGTQVTVSS” here?
Its value is “high polyreactivity”.

Which “polyreactivity (PSR sort gate)” value does the source give for “QVQLVESRGGLVQAGGSLLLSCAASGIIFRYYTMGWYRQAPGKERELVAAIERSGGNTYYADSVKGRFTISRDNAKNTVYLQMNSLKPEDTAVYYCAARYATWYFRRGRKTSDYDYWGQGTQVTVSS” here?
The value was “high polyreactivity”.

Which “polyreactivity (PSR sort gate)” value does the source give for “QVQLVESRGGLVQAGGSLRLRCAASGYIYYQYAMGWSRHAPGKETALVGAISLSGGMTYYADSVKGRFTISRDNAKNTVYLQMNSLKPEETGVYFCNAQSRVWCKVYYWGQGTQVTVSS” here?
The value was “high polyreactivity”.

With “QVQLVESRGGLVQAGGSLRLSCAASAFTFDYYVMGWYIQAPGKERELVAAISLRSGRTYYADSVKGRFTISRDNAKNTVYLQMNSLKPEDTAVYYCAAESRGVGAYYYWGQGTQLTVSS” as the sequence, how does the “polyreactivity (PSR sort gate)” value read?
The value was “high polyreactivity”.

Which “polyreactivity (PSR sort gate)” value does the source give for “QVQLVESRGGLVQAGGSLRLSCAASGFTFRAYAMGWYREAPGKERELVAAISTGGGSTYYADSVKGRFTISRDNAKITVYFQMNSLKPEDTAVYYCNALPQRRYYYWGQGTHVTVSS” here?
The value was “high polyreactivity”.

With “QVQLVESRGGLVQAGGSLRLSCAASGFTFSAYAMGWYRQAPGKERELVAAISWSGSRTYYADSVKGRFTISRDNAKNTVYLQMNSQKPEDTAVYYCAKEPYDTFGFYDYDYWGQGTQVTVSS” as the sequence, how does the “polyreactivity (PSR sort gate)” value read?
The value was “low polyreactivity”.
